Results on 4 sequences are retold here after US20030083294.

For data set [1], the target named is T1, coagulation factor IXa (FIXa) (Homo sapiens) (UniProt P00740+P00740). Put plainly: competition. To be noted: 2'-F pyrimidines, 2'-OH purines; 3-nt 2'-OMe 3' tail; comparable to 9.3t.
Data set [2] deals with T2, coagulation factor Xa (FXa) (Homo sapiens) (UniProt P00742+P00742). To be noted: 2'-F pyrimidines?
The target of data set [3] is T2, coagulation factor Xa (FXa) (Homo sapiens). To be noted: 2'-F pyrimidines?; versus 11F7t; no anticoagulant activity in PT or APTT.
Data set [4] has as its target activated protein C (APC) (UniProt P04070+P04070). To be noted: 2'-F pyrimidines, 2'-OH purines; <10% RNA bound at up to 5 uM protein; >5000-fold specificity.
For data set [5], the target named is coagulation factor VIIa (FVIIa) (UniProt P08709+P08709). To be noted: 2'-F pyrimidines, 2'-OH purines; <10% RNA bound at up to 5 uM protein; >5000-fold specificity.
Data set [6] deals with T2, coagulation factor Xa (FXa) (Homo sapiens). To be noted: 2'-F pyrimidines, 2'-OH purines; <10% RNA bound at up to 5 uM protein; >5000-fold specificity.
Data set [7] has as its target coagulation factor XIa (FXIa) (UniProt P03951+P03951). To be noted: 2'-F pyrimidines, 2'-OH purines; <10% RNA bound at up to 5 uM protein; >5000-fold specificity.
Data set [8] deals with T1, coagulation factor IXa (FIXa) (Homo sapiens). To be noted: 2'-F pyrimidines, 2'-OH purines; physiologic salt and pH, 37 C.

Like-named read-outs stand apart in the source and are kept apart here. Where only a bound is given, the exact number is not on record here.

What is called Kd is the free concentration of one partner at which half of the binding sites on the other are occupied at equilibrium, for simple one-to-one binding. “AUGGGGACUAUACCGCGUAAUGCUGCCUCCCCAUN [9.3t-3NT]” returned a Kd in data set [1] of less than 1.5 nM.
In data set [2], “GAGAGCCCCAGCGAGAUAAUACUUGGCCCCGCUCUUN [11F7t]” registered a Kd of 1.5 nM.
For the sequence “GAGAGCCCCAGCGAGAUAAUACUUGUACCCGCUCUUN [11F7tM]”, the binding signal (fold loss of affinity) in data set [3] was greater than 1300.
As for “AUGGGGACUAUACCGCGUAAUGCUGCCUCCCCAUN [9.3t]”, the Kd in data set [4] is greater than 5000 nM; in data set [5], greater than 5000 nM; in data set [6] it was greater than 5000 nM; in data set [7], greater than 5000 nM; in data set [8], 0.6 nM.
